Target: polypeptide with a terminal leucine residue (rest of sequence not given)
Test: single-molecule dwell time analysis; panel Leu; filtered 0.00s<=dur<=20.00s and magnitude above baseline > 15.0

- mean pulse duration (dashed line of the distribution): 0.35 s
Substance: Synechococcus elongatus ClpS2
